Measured values: the supplement of paper PMC9112550, “Optimization of the antimicrobial peptide Bac7 by deep mutational scanning” (BMC Biology, 2022)

Tested on: Escherichia coli TOP10
Assay: shrunken log2 fold change of peptide-encoding DNA abundance (4.5 h post-induction vs induction); higher = less antimicrobial activity (less host growth inhibition)
Settings: time post-induction: 4.5 h; library: site-saturation at positions 5, 18, 19, 20
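Also: peptides expressed intracellularly from a pBAD plasmid library in pooled LB shake-flask culture, induced with 0.3% L-arabinose, DNA abundance read by NGS, three biological replicates, DESeq2 with apeglm shrinkage.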

In the case of RRIRIRPPRLPRPRPRPYWAPRP, the “shrunken log2 fold change” value is reported as -1.07.

With RRIRIRPPRLPRPRPRPYYPPRP the “shrunken log2 fold change” value was -1.36.

In the case of RRIRKRPPRLPRPRPRPAANPRP, the “shrunken log2 fold change” value is reported as 0.647.

In the case of RRIRKRPPRLPRPRPRPAARPRP, the “shrunken log2 fold change” value is reported as 0.742.

For RRIRKRPPRLPRPRPRPAELPRP, the “shrunken log2 fold change” value was 0.552.

For RRIRKRPPRLPRPRPRPAFHPRP, the “shrunken log2 fold change” value was 0.0641.

With RRIRKRPPRLPRPRPRPAFQPRP the “shrunken log2 fold change” value was 0.107.

With RRIRKRPPRLPRPRPRPAGIPRP the “shrunken log2 fold change” value was 0.252.

With RRIRKRPPRLPRPRPRPAHGPRP the “shrunken log2 fold change” value was 0.502.

With RRIRKRPPRLPRPRPRPAKDPRP the “shrunken log2 fold change” value was 0.247.

RRIRKRPPRLPRPRPRPAKIPRP was tested, and the “shrunken log2 fold change” value was -0.266.

In the case of RRIRKRPPRLPRPRPRPAMGPRP, the “shrunken log2 fold change” value is reported as 0.14.

For RRIRKRPPRLPRPRPRPAMIPRP, the “shrunken log2 fold change” value was 0.909.

In the case of RRIRKRPPRLPRPRPRPAMLPRP, the “shrunken log2 fold change” value is reported as 0.292.

With RRIRKRPPRLPRPRPRPANQPRP the “shrunken log2 fold change” value was 0.239.

In the case of RRIRKRPPRLPRPRPRPANWPRP, the “shrunken log2 fold change” value is reported as 0.596.

With RRIRKRPPRLPRPRPRPANYPRP the “shrunken log2 fold change” value was 0.0421.

RRIRKRPPRLPRPRPRPAPCPRP was tested, and the “shrunken log2 fold change” value was 0.432.

For RRIRKRPPRLPRPRPRPAQNPRP, the “shrunken log2 fold change” value was 0.943.

For RRIRKRPPRLPRPRPRPARMPRP, the “shrunken log2 fold change” value was 0.905.

RRIRKRPPRLPRPRPRPASWPRP was tested, and the “shrunken log2 fold change” value was 0.625.

In the case of RRIRKRPPRLPRPRPRPATVPRP, the “shrunken log2 fold change” value is reported as 0.0874.

With RRIRKRPPRLPRPRPRPAVIPRP the “shrunken log2 fold change” value was 0.076.

With RRIRKRPPRLPRPRPRPAWFPRP the “shrunken log2 fold change” value was 0.0729.

In the case of RRIRKRPPRLPRPRPRPCAHPRP, the “shrunken log2 fold change” value is reported as 0.0754.

For RRIRKRPPRLPRPRPRPCARPRP, the “shrunken log2 fold change” value was -0.00716.

RRIRKRPPRLPRPRPRPCCQPRP was tested, and the “shrunken log2 fold change” value was -0.102.

For RRIRKRPPRLPRPRPRPCDSPRP, the “shrunken log2 fold change” value was -0.212.

In the case of RRIRKRPPRLPRPRPRPCFAPRP, the “shrunken log2 fold change” value is reported as 0.358.

In the case of RRIRKRPPRLPRPRPRPCFFPRP, the “shrunken log2 fold change” value is reported as 0.113.

For RRIRKRPPRLPRPRPRPCFHPRP, the “shrunken log2 fold change” value was -0.125.

With RRIRKRPPRLPRPRPRPCHMPRP the “shrunken log2 fold change” value was -0.538.

With RRIRKRPPRLPRPRPRPCIPPRP the “shrunken log2 fold change” value was -0.0433.

For RRIRKRPPRLPRPRPRPCLDPRP, the “shrunken log2 fold change” value was -0.173.

For RRIRKRPPRLPRPRPRPCMHPRP, the “shrunken log2 fold change” value was -0.0309.

With RRIRKRPPRLPRPRPRPCMKPRP the “shrunken log2 fold change” value was -0.0153.

With RRIRKRPPRLPRPRPRPCNIPRP the “shrunken log2 fold change” value was -0.697.

For RRIRKRPPRLPRPRPRPCNQPRP, the “shrunken log2 fold change” value was 0.0585.

For RRIRKRPPRLPRPRPRPCQGPRP, the “shrunken log2 fold change” value was -0.141.

With RRIRKRPPRLPRPRPRPCQKPRP the “shrunken log2 fold change” value was -0.0405.

RRIRKRPPRLPRPRPRPCSPPRP was tested, and the “shrunken log2 fold change” value was -0.102.

RRIRKRPPRLPRPRPRPCVAPRP was tested, and the “shrunken log2 fold change” value was 0.223.

In the case of RRIRKRPPRLPRPRPRPCVMPRP, the “shrunken log2 fold change” value is reported as 0.0542.

With RRIRKRPPRLPRPRPRPCYRPRP the “shrunken log2 fold change” value was -0.0703.

With RRIRKRPPRLPRPRPRPDAFPRP the “shrunken log2 fold change” value was 0.00489.

In the case of RRIRKRPPRLPRPRPRPDATPRP, the “shrunken log2 fold change” value is reported as 2.81.

With RRIRKRPPRLPRPRPRPDCHPRP the “shrunken log2 fold change” value was 0.233.

With RRIRKRPPRLPRPRPRPDCWPRP the “shrunken log2 fold change” value was 0.825.

With RRIRKRPPRLPRPRPRPDEHPRP the “shrunken log2 fold change” value was 0.0292.

With RRIRKRPPRLPRPRPRPDFFPRP the “shrunken log2 fold change” value was 0.0109.

For RRIRKRPPRLPRPRPRPDFLPRP, the “shrunken log2 fold change” value was 0.179.

With RRIRKRPPRLPRPRPRPDFQPRP the “shrunken log2 fold change” value was 0.33.

In the case of RRIRKRPPRLPRPRPRPDHEPRP, the “shrunken log2 fold change” value is reported as -0.013.

RRIRKRPPRLPRPRPRPDIGPRP was tested, and the “shrunken log2 fold change” value was -0.0485.

RRIRKRPPRLPRPRPRPDIHPRP was tested, and the “shrunken log2 fold change” value was 0.167.

RRIRKRPPRLPRPRPRPDIIPRP was tested, and the “shrunken log2 fold change” value was 0.194.

For RRIRKRPPRLPRPRPRPDKDPRP, the “shrunken log2 fold change” value was -0.0555.

For RRIRKRPPRLPRPRPRPDKHPRP, the “shrunken log2 fold change” value was 0.0337.

In the case of RRIRKRPPRLPRPRPRPDKTPRP, the “shrunken log2 fold change” value is reported as -0.0726.

RRIRKRPPRLPRPRPRPDKVPRP was tested, and the “shrunken log2 fold change” value was 0.116.
